Experimental data reported in PMC4405576, “The Crystal Structure and Small-Angle X-Ray Analysis of CsdL/TcdA Reveal a New tRNA Binding Motif in the MoeB/E1 Superfamily” (PLoS ONE, 2015).
pKd: −log10 of the molar value. Each block holds one compound with its values, some of them ahead of it.

Assays:
[1] = target: tRNA threonylcarbamoyladenosine dehydratase A (TcdA) (E. coli) (UniProt Q46927); assay: SEC; analytical gel filtration of TcdA alone; data not shown
[2] = target: tRNA threonylcarbamoyladenosine dehydratase A (TcdA) (E. coli) (UniProt Q46927); assay: SAXS; purified TcdA, batch setup, three concentrations between 0.5-5 mg/ml, 5°C, 20 mM sodium/potassium phosphate pH 7.4, 300 mM NaCl, 2 mM β-mercaptoethanol
[3] = target: tRNA threonylcarbamoyladenosine dehydratase A (TcdA) (E. coli) (UniProt Q46927); assay: AUC; sedimentation velocity and sedimentation equilibrium, 20°C, 20 mM HEPES, 100 mM KCl, 50 mM NaCl, pH 7.4; TcdA alone
CsdL/TcdA = target: T1, CsdL/TcdA (Escherichia coli, UniProt Q46927); assay: X-ray crystallography; settings: crystals in 0.05 M potassium phosphate, 10% PEG1000, basic pH, 20 °C; 1.77 Å; K+ and Na+ bound; nucleotide-binding site crystallisation; 1.89 Å; AMP as obtained directly from the cell (co-purified); n
T1 sequence (Q46927 1-268): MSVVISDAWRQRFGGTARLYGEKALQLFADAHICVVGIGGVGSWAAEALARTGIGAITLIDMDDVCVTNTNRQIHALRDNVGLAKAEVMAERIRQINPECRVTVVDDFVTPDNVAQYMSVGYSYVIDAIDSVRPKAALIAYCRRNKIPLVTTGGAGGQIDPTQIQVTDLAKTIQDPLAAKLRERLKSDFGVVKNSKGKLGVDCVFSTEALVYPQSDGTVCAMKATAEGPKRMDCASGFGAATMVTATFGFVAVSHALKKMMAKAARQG

[4] = tested on: TcdA (CsdL) (Escherichia coli); assay: intrinsic fluorescence quenching; settings: native tRNA modifications possible, not determined

stoichiometry N [1]: 2
stoichiometry N [2]: 2
stoichiometry N [3]: 2
Compound: tRNA threonylcarbamoyladenosine dehydratase A (TcdA) (from UniProt Q46927 1-268) (enzyme)

Compound: Nc1ncnc2c1ncn2[C@@H]1O[C@H](COP(=O)(O)O)[C@@H](O)[C@H]1O [AMP]
X-ray crystallography (CsdL/TcdA): the nucleotide-binding residues stabilize AMP in a manner analogous to ATP

Compound: tRNALys(UUU), overexpressed in E. coli
pKd [4]: 5.52
